The record followed here is publication doi:10.1101/2020.02.11.944678.

The test has as its target Fibronectin (FN) from human plasma (human) (UniProt P02751).
Chain of UniProt P02751 (P02751 32-2477): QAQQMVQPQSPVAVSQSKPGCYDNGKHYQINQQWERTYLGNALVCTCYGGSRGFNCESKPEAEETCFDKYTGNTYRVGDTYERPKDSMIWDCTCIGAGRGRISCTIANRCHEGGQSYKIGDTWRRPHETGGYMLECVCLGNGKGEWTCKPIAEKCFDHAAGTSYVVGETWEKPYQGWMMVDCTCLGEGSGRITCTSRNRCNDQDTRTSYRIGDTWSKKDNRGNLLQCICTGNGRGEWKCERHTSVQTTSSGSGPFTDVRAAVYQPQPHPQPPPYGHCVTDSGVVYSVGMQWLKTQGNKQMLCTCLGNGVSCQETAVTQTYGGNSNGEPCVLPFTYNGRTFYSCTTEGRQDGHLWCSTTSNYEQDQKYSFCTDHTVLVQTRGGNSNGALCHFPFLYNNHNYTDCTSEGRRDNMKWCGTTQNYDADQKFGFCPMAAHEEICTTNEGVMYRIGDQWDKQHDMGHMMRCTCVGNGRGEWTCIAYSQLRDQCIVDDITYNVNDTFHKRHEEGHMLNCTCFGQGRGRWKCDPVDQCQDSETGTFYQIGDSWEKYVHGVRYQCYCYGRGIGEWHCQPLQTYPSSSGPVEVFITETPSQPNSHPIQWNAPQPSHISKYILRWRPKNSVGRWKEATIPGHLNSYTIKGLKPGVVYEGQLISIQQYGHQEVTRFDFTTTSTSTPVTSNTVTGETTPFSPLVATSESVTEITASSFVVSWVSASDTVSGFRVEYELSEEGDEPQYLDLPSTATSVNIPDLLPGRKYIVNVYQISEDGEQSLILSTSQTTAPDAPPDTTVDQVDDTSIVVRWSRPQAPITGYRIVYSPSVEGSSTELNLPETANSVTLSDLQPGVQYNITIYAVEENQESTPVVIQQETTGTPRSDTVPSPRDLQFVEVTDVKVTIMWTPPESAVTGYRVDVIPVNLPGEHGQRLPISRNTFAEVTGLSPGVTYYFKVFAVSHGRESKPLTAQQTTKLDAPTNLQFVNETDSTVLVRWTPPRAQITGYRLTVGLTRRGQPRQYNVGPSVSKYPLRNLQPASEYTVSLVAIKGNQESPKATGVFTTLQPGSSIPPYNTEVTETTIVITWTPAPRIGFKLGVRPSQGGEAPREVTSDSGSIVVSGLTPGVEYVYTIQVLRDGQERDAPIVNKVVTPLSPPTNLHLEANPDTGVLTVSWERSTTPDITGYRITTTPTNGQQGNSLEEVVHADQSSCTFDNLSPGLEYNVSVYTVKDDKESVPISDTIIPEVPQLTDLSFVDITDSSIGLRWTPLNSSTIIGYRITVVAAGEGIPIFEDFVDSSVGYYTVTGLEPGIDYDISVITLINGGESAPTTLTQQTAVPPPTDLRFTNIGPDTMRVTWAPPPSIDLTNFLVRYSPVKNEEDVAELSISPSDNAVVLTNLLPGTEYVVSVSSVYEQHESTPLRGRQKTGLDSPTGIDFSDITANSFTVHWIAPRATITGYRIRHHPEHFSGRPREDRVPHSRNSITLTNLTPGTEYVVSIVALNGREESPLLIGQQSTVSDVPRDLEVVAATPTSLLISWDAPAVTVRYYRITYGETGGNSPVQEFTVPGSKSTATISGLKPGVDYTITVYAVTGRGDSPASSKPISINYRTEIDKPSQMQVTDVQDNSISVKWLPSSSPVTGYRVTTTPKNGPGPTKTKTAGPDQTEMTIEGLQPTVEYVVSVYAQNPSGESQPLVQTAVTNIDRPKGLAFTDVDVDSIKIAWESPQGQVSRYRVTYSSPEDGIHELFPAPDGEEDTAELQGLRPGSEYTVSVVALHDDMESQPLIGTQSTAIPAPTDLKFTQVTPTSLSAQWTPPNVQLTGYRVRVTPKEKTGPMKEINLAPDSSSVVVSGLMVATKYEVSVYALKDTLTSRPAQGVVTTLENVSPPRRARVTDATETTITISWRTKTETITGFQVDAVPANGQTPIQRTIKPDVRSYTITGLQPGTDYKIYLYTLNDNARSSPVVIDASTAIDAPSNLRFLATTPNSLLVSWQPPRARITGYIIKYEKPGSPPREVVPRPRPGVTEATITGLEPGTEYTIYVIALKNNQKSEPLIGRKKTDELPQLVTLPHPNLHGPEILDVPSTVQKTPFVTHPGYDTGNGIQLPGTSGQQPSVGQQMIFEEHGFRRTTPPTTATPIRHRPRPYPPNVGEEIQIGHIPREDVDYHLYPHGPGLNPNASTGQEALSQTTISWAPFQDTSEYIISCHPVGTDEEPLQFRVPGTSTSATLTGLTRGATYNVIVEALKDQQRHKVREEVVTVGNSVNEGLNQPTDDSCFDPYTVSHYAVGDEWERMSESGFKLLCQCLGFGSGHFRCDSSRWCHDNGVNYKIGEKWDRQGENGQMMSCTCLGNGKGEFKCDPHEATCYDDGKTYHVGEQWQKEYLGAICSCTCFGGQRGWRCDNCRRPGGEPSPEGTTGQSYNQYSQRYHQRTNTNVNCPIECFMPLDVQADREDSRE

“Recombinant human αVβ3 integrin (from UniProt P06756;P05106) (receptor)” had a fold more bead attachment on FN-coated GO than on FN-coated RGO of 5 fold.
